According to patent publication US20250002585A1 (CENTESSA PHARMACEUTICALS UK, published 2025):

Target: T1, mouse CD47 (SPR analyte) (mouse, UniProt Q61735 19-140, limits assumed)
T1 sequence (looked up): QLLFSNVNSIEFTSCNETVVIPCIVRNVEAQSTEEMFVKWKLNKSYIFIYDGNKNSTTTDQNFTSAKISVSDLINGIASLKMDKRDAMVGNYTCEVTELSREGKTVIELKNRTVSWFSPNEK
Experiment: SPR (Biacore T200), 25 C; Fab captured by anti-human Fab, mouse CD47 as analyte; steady state
Procedure: HBS-P+ supplemented with 0.1% BSA was used as running buffer as well as for ligand and analyte dilutions. […] Ligand was captured at a flow rate of 10 μl/min to give an immobilisation level (RL) of ˜ 60 RU. The surface was then allowed to stabilise. Multi-cycle kinetic data was obtained using either human or mouse CD47 as the analyte injected at a flow rate of 30 μl/min. […] For each concentration, the association phases were monitored for 180 seconds, and the dissociation phase was measured for 300 seconds. Regeneration of the sensor chip surface was conducted between cycles using 10 mM glycine pH 2.1. The signal from the reference channel Fcl (no ligand captured) was subtracted from that of Fc2-4 to correct for bulk effect and differences in non-specific binding to a reference surface. The signal from each CD47 blank run (ligand captured but no antigen) was subtracted to correct for differences in surface stability. […] Mouse CD47 binding was analysed using steady state analysis.

- Kd: 165 nM
B1: positive control anti-CD47 Fab (recombinant Fab using the variable domain sequences used in LB101) (Fab, V domains shown)
VH: QVQLVQSGAEVKKPGESLKISCKGSGYTFTNYYIFWVRQMPGKGLEWMGIINPVDGDTNYNPSFQGQVTISADKSISTAYLQWSSLKASDTAMYYCARGGYTMDRWGQGTLVTVSS
VL: DIVMTQSPLSLPVTPGEPASISCRSSQSLLHSNGYNYLHWYLQKPGQSPQLLIYKVSNRFSGVPDRFSGSGSGTDFTLKISRVEAEDVGVYYCFQNTHTPRTFGGGTKVEIK
